Data set [1] deals with CCCCCCCCCC(=O)SCCNC(=O)CCNC(=O)[C@H](O)C(C)(C)COP(=O)(O)OP(=O)(O)OC[C@H]1O[C@@H](n2cnc3c(N)ncnc32)[C@H](O)[C@@H]1OP(=O)(O)O. In words: purified protein, by the assay type. The following applies: other: Batch 1 from baculovirus, continuous assay.
Description: (§1) A continuous assay format was used to get kinetic information on this preparation of S-acyl fatty acid synthase thioesterase-like enzyme short (long) polypeptide, using the same conditions as with the discontinuous assay, except with this format, developer was added to enzyme until a flat signal was achieved, then the reaction was started by the addition of substrate. Along with palmitoyl CoA, the other substrates assayed were acetyl CoA, octanoyl CoA, decanoyl CoA, and lauroyl CoA.
(§2) S-acyl fatty acid synthase thioesterase-like enzyme short (long) polypeptide activity was assayed in the continuous format as described.
In data set [2] the test system is CCCCCCCCCCCCCCCC(=O)SCCNC(=O)CCNC(=O)[C@H](O)C(C)(C)COP(=O)(O)OP(=O)(O)OC[C@H]1O[C@@H](n2cnc3c(N)ncnc32)[C@H](O)[C@@H]1OP(=O)(O)O. Description: purified protein, by the assay type. The following applies: continuous assay.
Description: as §1, §2
The test system of data set [3] is CCCCCCCC(=O)SCCNC(=O)CCNC(=O)[C@H](O)C(C)(C)COP(=O)(O)OP(=O)(O)OC[C@H]1O[C@@H](n2cnc3c(N)ncnc32)[C@H](O)[C@@H]1OP(=O)(O)O. In words: purified protein, by the assay type. The following applies: other: Batch 1 from baculovirus, continuous assay.
Description: as §1, §2
The test system of data set [4] is CCCCCCCCCCCC(=O)SCCNC(=O)CCNC(=O)[C@H](O)C(C)(C)COP(=O)(O)OP(=O)(O)OC[C@H]1O[C@@H](n2cnc3c(N)ncnc32)[C@H](O)[C@@H]1OP(=O)(O)O. Description: purified protein, by the assay type. The settings on record: other: Batch 1 from baculovirus, continuous assay.
Description: as §1, §2
For data set [5], the target named is T1, S-acyl fatty acid synthase thioesterase-like enzyme short (long) polypeptide (coolEST49) (Homo sapiens, UniProt Q9NV23).
T1 construct: 6xHis (N); made in house; host or cells: E. coli BL21 (DE3), pET-28a
T1 sequence (Q9NV23 whole entry): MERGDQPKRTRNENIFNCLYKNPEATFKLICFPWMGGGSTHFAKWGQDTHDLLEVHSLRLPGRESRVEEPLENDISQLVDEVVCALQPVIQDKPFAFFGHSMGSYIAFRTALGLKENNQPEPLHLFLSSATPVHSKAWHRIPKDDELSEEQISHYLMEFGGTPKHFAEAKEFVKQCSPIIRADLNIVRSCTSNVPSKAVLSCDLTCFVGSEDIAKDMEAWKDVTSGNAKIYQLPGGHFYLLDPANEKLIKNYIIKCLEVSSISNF
Description: Discontinuous DTNB thioesterase activity / inhibition assay with palmitoyl CoA. In kind it is biochemical. The settings on record: 1 mM AEBSF. As for the experimental part:
Activity of both protein peaks was assayed using an optimized discontinuous assay format. Reaction mixture was 100 mM Tris (pH 8.0), 100 nM coolEST49,±0.1 mM palmitoyl CoA in a volume of 100 μL. The mixture was allowed to incubate at room temperature for 3 hours. After incubation, 150 μL of developer mixture (0.42 mM DTNB in 100 mM Tris) was added, and the absorbance at 412 nm was measured using a 96-well plate reader, using samples without palmitoyl CoA as blanks.
Activity of S-acyl fatty acid synthase thioesterase-like enzyme short (long) polypeptide from the anion exchange column was assayed and compared to that of the eluate from the Ni-NTA column step. An attempt was also made at inhibiting S-acyl fatty acid synthase thioesterase-like enzyme short (long) polypeptide with either DEPC (7 mM) or AEBSF (1 mM).

In data set [6] the target is T2, S-acyl fatty acid synthase thioesterase-like enzyme short (long) polypeptide (Homo sapiens, UniProt Q9NV23). In words: Comparison of continuous and discontinuous assay format (pre-incubation with DTNB). The class given is biochemical. On the set-up: His6; made in house; host or cells: Sf9 insect cells, baculovirus. The following applies: DTNB at the concentrations used in the continuous assay format. As for the experimental part:
S-acyl fatty acid synthase thioesterase-like enzyme short (long) polypeptide was incubated in the presence or absence of DTNB, and the A412 was monitored until a baseline was achieved. Substrate (palmitoyl CoA) was then added to each incubation and was incubated for an additional 50 minutes. After this period of time, A412 of each sample was compared to determine whether the pre-incubation of enzyme with DTNB inactivates the enzyme. Enzyme without substrate was used as a blank for the discontinuous assay.

Data set [7] concerns the target T2, S-acyl fatty acid synthase thioesterase-like enzyme short (long) polypeptide. In words: Continuous DTNB assay, kinetics and substrate searching. The settings on record: Batch 1 from baculovirus.
Description: as §1, §2
[8] abbreviates: other: Batch 1 from baculovirus.

T2 sequence (Q9NV23 whole entry): as above

For orientation: Km means the substrate concentration at which the rate is half of its maximum. As usually defined, the kcat is the maximal rate divided by the concentration of active sites. With “S-acyl fatty acid synthase thioesterase-like enzyme short (long) polypeptide (Homo sapiens)”, the Km was 856.1 µM in data set [1]; 5.1 µM in data set [2] (setting [8]); 2.4 µM in data set [2] (other: Batch 2 from baculovirus); 12,400 μM in data set [3]; 76.7 µM in data set [4]. Further, the kcat in data set [1] is 0.0467 s⁻¹; in data set [2] (setting [8]) it was 0.0167 s⁻¹; in data set [3] it was 0.115 s⁻¹; in data set [4], 0.0167 s⁻¹.
As to `Cl.NCCc1ccc(S(=O)(=O)F)cc1` [AEBSF, 4-(2-Aminoethyl)Benzenesulfonyl Fluoride Hydrochloride], the “Inhibition of S-acyl fatty acid synthase thioesterase-like enzyme short (long) polypeptide activity” value in data set [5] is “inhibited”.
With `O=C(O)c1cc(SSc2ccc([N+](=O)[O-])c(C(=O)O)c2)ccc1[N+](=O)[O-]` [DTNB, 5,5′-dithiobis(2-nitrobenzoic acid)], the “Inactivation of the enzyme” value in data set [6] is on record as 60%.
As to `CC(=O)SCCNC(=O)CCNC(=O)[C@H](O)C(C)(C)COP(=O)(O)OP(=O)(O)OC[C@H]1O[C@@H](n2cnc3c(N)ncnc32)[C@H](O)[C@@H]1OP(=O)(O)O` [Acetyl CoA], the Km result in data set [7] is recorded as “immeasurable”. In addition, the kcat result in data set [7] (footnote: 1.0 = 23 mOD/min) is recorded as “immeasurable”.

Source of the values: patent US6593099B2, “Regulation of human S-acyl fatty acid synthase thioesterase-like enzyme” (Bayer Aktiengesellschaft, priority 2000, dated 2003).
